Target: Neutrophil elastase (NE), active, human (human) (UniProt P08246)
Chain of UniProt P08246 (P08246 30-267): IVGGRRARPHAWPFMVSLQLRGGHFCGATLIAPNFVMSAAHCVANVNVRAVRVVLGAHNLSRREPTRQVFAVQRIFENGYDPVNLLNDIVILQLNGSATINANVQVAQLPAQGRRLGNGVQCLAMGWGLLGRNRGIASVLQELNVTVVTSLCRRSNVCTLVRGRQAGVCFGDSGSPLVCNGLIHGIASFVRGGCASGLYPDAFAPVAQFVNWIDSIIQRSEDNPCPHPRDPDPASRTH

IC50 of inhibition of NE (5 nM) degradation of fluorogenic elastase substrate V (MeOSuc-Ala-Ala-Pro-Val-AMC), after 30 min pre-incubation at 37°C	IC50 of inhibition of NE (5 nM) gelatinolytic activity, DQ-gelatin degradation, with 50 µM SB-3CT	Substance
28.9 nM	5.24 nM	MMP-9-treated SLPI, MMP-9/SLPI molar ratio 1/20 (from UniProt P03973 26-96; P03973 97-132)
8.71 nM	0.97 nM	Secretory leukocyte peptidase inhibitor (SLPI), intact (from UniProt P03973 26-132) (natural protein)
76.3 nM	51.2 nM	MMP-9-treated SLPI, MMP-9/SLPI molar ratio 1/5 (from UniProt P03973 26-41; P03973 42-96; P03973 97-132)
